Our source for the EGFR-Wt mean, Wt/L858R and EGFR-L858R mean values is US9958461B2, “Detection of protein to protein interactions” (THE GOVERNING COUNCIL OF THE UNIVERSITY OF TORONTO, priority 2013, dated 2018).

The target of assay [1] is T1, EGFR-Wt (Homo sapiens, UniProt P00533).
T1 construct: with the advantage of testing full-length integral membrane proteins; (GGGGS)2 linker-Cub (human ubiquitin aa 35-76)-GAL4(1-147)-mNFkB(364-550) (C); expressed in transfected cells
As to the kind of experiment: MaMTH EGFR-interactor screen, lentiviral preys against EGFR-wildtype bait (interaction score). It counts as cell-based. Conditions: MaMTH interaction score of prey with EGFR-Wt bait, mean. In outline:
(§1)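 5×GAL4UAS-luciferase HEK293T reporter cells were lentivirally infected with preys (MOI ~0.3-0.4) and puromycin-selected ≥48 h. They were then transfected in triplicate with the EGFR bait, and luciferase was read 24 h later. Score is fold-change over averaged negative-control preys; >1 denotes interaction.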

The subject of assay [2] is EGFR-Wt. The description is as above. It counts as cell-based, human. Conditions: ratio of EGFR-Wt mean to EGFR-L858R mean interaction score. The method in brief: as §1
Assay [3] deals with T2, EGFR-L858R (Homo sapiens, UniProt P00533, L858R).
T2 construct: with the advantage of testing full-length integral membrane proteins; (GGGGS)2 linker-Cub (human ubiquitin aa 35-76)-GAL4(1-147)-mNFkB(364-550) (C); expressed in transfected cells
As to the kind of experiment: MaMTH EGFR-interactor screen, lentiviral preys against EGFR-L858R bait (interaction score). Type of assay: cell-based. The following applies: MaMTH interaction score of prey with EGFR-L858R bait. The method in brief:
as §1

B1: SHC4 (protein, UniProt Q6S5L8 1-630, looked up)
SHC-transforming protein 4: MRERGQDSLAGLVLYVGLFGHPGMLHRAKYSRFRNESITSLDEGSSGGSVGNKGSPQPPHPALAPHLPTEDATLPSQESPTPLCTLIPRMASMKLANPATLLSLKNFCLGTKEVPRLKLQESRDPGSSGPSSPETSLSRSGTAPPPQQDLVGHRATALTPDSCPLPGPGEPTLRSRQDRHFLQHLLGMGMNYCVRYMGCVEVLQSMRSLDFGMRTQVTREAISRLCEAVPGANGAIKKRKPPVKFLSTVLGKSNLQFSGMNIKLTISTCSLTLMNLDNQQIIANHHMQSISFASGGDPDTTDYVAYVAKDPVNQRACHILECHNGMAQDVISTIGQAFELRFKQYLKNPSLNTSCESEEVHIDSHAEEREDHEYYNEIPGKQPPVGGVSDMRIKVQATEQMAYCPIQCEKLCYLPGNSKCSSVYENCLEQSRAIGNVHPRGVQSQRDTSLLKHTCRVDLFDDPCYINTQALQSTPGSAGNQRSAQPLGSPWHCGKAPETVQPGATAQPASSHSLPHIKQQLWSEECYHGKLSRKAAESLLVKDGDFLVRESATSPGQYVLSGLQGGQAKHLLLVDPEGKVRTKDHVFDNVGHLIRYHMDNSLPIISSGSEVSLKQPVRKDNNPALLHSNK
In turn, B1 yielded an EGFR-Wt mean in assay [1] of 5.31. Also, in assay [2], the Wt/L858R is listed as 0.47. Also, the EGFR-L858R mean in assay [3] came to 11.39.

B2: VAV1 (protein, UniProt P15498 1-845, looked up)
Proto-oncogene vav: MELWRQCTHWLIQCRVLPPSHRVTWDGAQVCELAQALRDGVLLCQLLNNLLPHAINLREVNLRPQMSQFLCLKNIRTFLSTCCEKFGLKRSELFEAFDLFDVQDFGKVIYTLSALSWTPIAQNRGIMPFPTEEESVGDEDIYSGLSDQIDDTVEEDEDLYDCVENEEAEGDEIYEDLMRSEPVSMPPKMTEYDKRCCCLREIQQTEEKYTDTLGSIQQHFLKPLQRFLKPQDIEIIFINIEDLLRVHTHFLKEMKEALGTPGAANLYQVFIKYKERFLVYGRYCSQVESASKHLDRVAAAREDVQMKLEECSQRANNGRFTLRDLLMVPMQRVLKYHLLLQELVKHTQEAMEKENLRLALDAMRDLAQCVNEVKRDNETLRQITNFQLSIENLDQSLAHYGRPKIDGELKITSVERRSKMDRYAFLLDKALLICKRRGDSYDLKDFVNLHSFQVRDDSSGDRDNKKWSHMFLLIEDQGAQGYELFFKTRELKKKWMEQFEMAISNIYPENATANGHDFQMFSFEETTSCKACQMLLRGTFYQGYRCHRCRASAHKECLGRVPPCGRHGQDFPGTMKKDKLHRRAQDKKRNELGLPKMEVFQEYYGLPPPPGAIGPFLRLNPGDIVELTKAEAEQNWWEGRNTSTNEIGWFPCNRVKPYVHGPPQDLSVHLWYAGPMERAGAESILANRSDGTFLVRQRVKDAAEFAISIKYNVEVKHIKIMTAEGLYRITEKKAFRGLTELVEFYQQNSLKDCFKSLDTTLQFPFKEPEKRTISRPAVGSTKYFGTAKARYDFCARDRSELSLKEGDIIKILNKKGQQGWWRGEIYGRVGWFPANYVEEDYSEYC
Molecule B2 yielded an EGFR-Wt mean in assay [1] of 1.45. For the same molecule, the Wt/L858R in assay [2] amounted to 0.54. In assay [3], this molecule displayed an EGFR-L858R mean of 2.68.

B3: EPS8 (protein, UniProt Q12929 1-822, looked up)
Epidermal growth factor …: MNGHISNHPSSFGMYPSQMNGYGSSPTFSQTDREHGSKTSAKALYEQRKNYARDSVSSVSDISQYRVEHLTTFVLDRKDAMITVDDGIRKLKLLDAKGKVWTQDMILQVDDRAVSLIDLESKNELENFPLNTIQHCQAVMHSCSYDSVLALVCKEPTQNKPDLHLFQCDEVKANLISEDIESAISDSKGGKQKRRPDALRMISNADPSIPPPPRAPAPAPPGTVTQVDVRSRVAAWSAWAADQGDFEKPRQYHEQEETPEMMAARIDRDVQILNHILDDIEFFITKLQKAAEAFSELSKRKKNKKGKRKGPGEGVLTLRAKPPPPDEFLDCFQKFKHGFNLLAKLKSHIQNPSAADLVHFLFTPLNMVVQATGGPELASSVLSPLLNKDTIDFLNYTVNGDERQLWMSLGGTWMKARAEWPKEQFIPPYVPRFRNGWEPPMLNFMGATMEQDLYQLAESVANVAEHQRKQEIKRLSTEHSSVSEYHPADGYAFSSNIYTRGSHLDQGEAAVAFKPTSNRHIDRNYEPLKTQPKKYAKSKYDFVARNNSELSVLKDDILEILDDRKQWWKVRNASGDSGFVPNNILDIVRPPESGLGRADPPYTHTIQKQRMEYGPRPADTPPAPSPPPTPAPVPVPLPPSTPAPVPVSKVPANITRQNSSSSDSGGSIVRDSQRHKQLPVDRRKSQMEEVQDELIHRLTIGRSAAQKKFHVPRQNVPVINITYDSTPEDVKTWLQSKGFNPVTVNSLGVLNGAQLFSLNKDELRTVCPEGARVYSQITVQKAALEDSSGSSELQEIMRRRQEKISAAASDSGVESFDEGSSH
Take B3: the EGFR-Wt mean in assay [1] came out at 2.62. For the same molecule, the Wt/L858R in assay [2] came to 0.47. In assay [3], this molecule returned an EGFR-L858R mean of 5.58.

B4: HDAC7 (protein, UniProt Q8WUI4 1-952, looked up)
Histone deacetylase 7: MDLRVGQRPPVEPPPEPTLLALQRPQRLHHHLFLAGLQQQRSVEPMRLSMDTPMPELQVGPQEQELRQLLHKDKSKRSAVASSVVKQKLAEVILKKQQAALERTVHPNSPGIPYRTLEPLETEGATRSMLSSFLPPVPSLPSDPPEHFPLRKTVSEPNLKLRYKPKKSLERRKNPLLRKESAPPSLRRRPAETLGDSSPSSSSTPASGCSSPNDSEHGPNPILGSEALLGQRLRLQETSVAPFALPTVSLLPAITLGLPAPARADSDRRTHPTLGPRGPILGSPHTPLFLPHGLEPEAGGTLPSRLQPILLLDPSGSHAPLLTVPGLGPLPFHFAQSLMTTERLSGSGLHWPLSRTRSEPLPPSATAPPPPGPMQPRLEQLKTHVQVIKRSAKPSEKPRLRQIPSAEDLETDGGGPGQVVDDGLEHRELGHGQPEARGPAPLQQHPQVLLWEQQRLAGRLPRGSTGDTVLLPLAQGGHRPLSRAQSSPAAPASLSAPEPASQARVLSSSETPARTLPFTTGLIYDSVMLKHQCSCGDNSRHPEHAGRIQSIWSRLQERGLRSQCECLRGRKASLEELQSVHSERHVLLYGTNPLSRLKLDNGKLAGLLAQRMFVMLPCGGVGVDTDTIWNELHSSNAARWAAGSVTDLAFKVASRELKNGFAVVRPPGHHADHSTAMGFCFFNSVAIACRQLQQQSKASKILIVDWDVHHGNGTQQTFYQDPSVLYISLHRHDDGNFFPGSGAVDEVGAGSGEGFNVNVAWAGGLDPPMGDPEYLAAFRIVVMPIAREFSPDLVLVSAGFDAAEGHPAPLGGYHVSAKCFGYMTQQLMNLAGGAVVLALEGGHDLTAICDASEACVAALLGNRVDPLSEEGWKQKPNLNAIRSLEAVIRVHSKYWGCMQRLASCPDSWVPRVPGADKEEVEAVTALASLSVGILAEDRPSEQLVEEEEPMNL
For B4, the EGFR-Wt mean in assay [1] amounted to 2.37. Moreover, the Wt/L858R in assay [2] was determined as 0.55. The molecule also gave an EGFR-L858R mean in assay [3] of 4.35.

B5: CDC25C (protein, UniProt P30307 2-473, looked up)
M-phase inducer phosphatase 3: STELFSSTREEGSSGSGPSFRSNQRKMLNLLLERDTSFTVCPDVPRTPVGKFLGDSANLSILSGGTPKRCLDLSNLSSGEITATQLTTSADLDETGHLDSSGLQEVHLAGMNHDQHLMKCSPAQLLCSTPNGLDRGHRKRDAMCSSSANKENDNGNLVDSEMKYLGSPITTVPKLDKNPNLGEDQAEEISDELMEFSLKDQEAKVSRSGLYRSPSMPENLNRPRLKQVEKFKDNTIPDKVKKKYFSGQGKLRKGLCLKKTVSLCDITITQMLEEDSNQGHLIGDFSKVCALPTVSGKHQDLKYVNPETVAALLSGKFQGLIEKFYVIDCRYPYEYLGGHIQGALNLYSQEELFNFFLKKPIVPLDTQKRIIIVFHCEFSSERGPRMCRCLREEDRSLNQYPALYYPELYILKGGYRDFFPEYMELCEPQSYCPMHHQDHKTELLRCRSQSKVQEGERQLREQIALLVKDMSP
With B5, in assay [1], the EGFR-Wt mean came to 2.12. Besides, the Wt/L858R in assay [2] is on record as 0.54. In addition, the EGFR-L858R mean in assay [3] is on record as 3.94.

B6: CISH (protein, UniProt Q9NSE2 1-258, looked up)
Cytokine-inducible …: MVLCVQGPRPLLAVERTGQRPLWAPSLELPKPVMQPLPAGAFLEEVAEGTPAQTESEPKVLDPEEDLLCIAKTFSYLRESGWYWGSITASEARQHLQKMPEGTFLVRDSTHPSYLFTLSVKTTRGPTNVRIEYADSSFRLDSNCLSRPRILAFPDVVSLVQHYVASCTADTRSDSPDPAPTPALPMPKEDAPSDPALPAPPPATAVHLKLVQPFVRRSSARSLQHLCRLVINRLVADVDCLPLPRRMADYLRQYPFQL
Regarding B6, the EGFR-Wt mean in assay [1] is on record as 1.29. The Wt/L858R in assay [2] turned out to be 0.49. In assay [3], this molecule displayed an EGFR-L858R mean of 2.66.

B7: PDCD6IP (protein, UniProt Q8WUM4 2-868, looked up)
Programmed cell death …: ATFISVQLKKTSEVDLAKPLVKFIQQTYPSGGEEQAQYCRAAEELSKLRRAAVGRPLDKHEGALETLLRYYDQICSIEPKFPFSENQICLTFTWKDAFDKGSLFGGSVKLALASLGYEKSCVLFNCAALASQIAAEQNLDNDEGLKIAAKHYQFASGAFLHIKETVLSALSREPTVDISPDTVGTLSLIMLAQAQEVFFLKATRDKMKDAIIAKLANQAADYFGDAFKQCQYKDTLPKEVFPVLAAKHCIMQANAEYHQSILAKQQKKFGEEIARLQHAAELIKTVASRYDEYVNVKDFSDKINRALAAAKKDNDFIYHDRVPDLKDLDPIGKATLVKSTPVNVPISQKFTDLFEKMVPVSVQQSLAAYNQRKADLVNRSIAQMREATTLANGVLASLNLPAAIEDVSGDTVPQSILTKSRSVIEQGGIQTVDQLIKELPELLQRNREILDESLRLLDEEEATDNDLRAKFKERWQRTPSNELYKPLRAEGTNFRTVLDKAVQADGQVKECYQSHRDTIVLLCKPEPELNAAIPSANPAKTMQGSEVVNVLKSLLSNLDEVKKEREGLENDLKSVNFDMTSKFLTALAQDGVINEEALSVTELDRVYGGLTTKVQESLKKQEGLLKNIQVSHQEFSKMKQSNNEANLREEVLKNLATAYDNFVELVANLKEGTKFYNELTEILVRFQNKCSDIVFARKTERDELLKDLQQSIAREPSAPSIPTPAYQSSPAGGHAPTPPTPAPRTMPPTKPQPPARPPPPVLPANRAPSATAPSPVGAGTAAPAPSQTPGSAPPPQAQGPPYPTYPGYPGYCQMPMPMGYNPYAYGQYNMPYPPVYHQSPGQAPYPGPQQPSYPFPQPPQQSYYPQQ
Molecule B7 gave an EGFR-Wt mean in assay [1] of 7.39. Moreover, the Wt/L858R in assay [2] turned out to be 0.53. The same molecule gave an EGFR-L858R mean in assay [3] of 14.05.
